Values quoted from earlier work in publication PMC2895966.

Target: Pyrrhocoricin (Pyrrhocoris apterus) (UniProt P37362)
Sequence (P37362 whole entry): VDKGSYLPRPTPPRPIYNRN

Sequence of DnaK SBD (P0A6Y8 389-607): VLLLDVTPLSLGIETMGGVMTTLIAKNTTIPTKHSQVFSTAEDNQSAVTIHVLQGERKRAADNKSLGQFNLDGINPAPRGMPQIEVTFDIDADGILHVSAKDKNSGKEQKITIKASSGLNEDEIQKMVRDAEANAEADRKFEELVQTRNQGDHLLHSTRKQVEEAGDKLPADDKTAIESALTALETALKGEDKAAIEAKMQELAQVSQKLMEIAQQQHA

DnaK SBD (from UniProt P0A6Y8)
Kd: 50 µM
